The text below walks through data of publication PMC6150735, “Molecular Docking-Based Design and Development of a Highly Selective Probe Substrate for UDP-glucuronosyltransferase 1A10” (Molecular Pharmaceutics, 2018).

Usually Vmax stands for the rate approached at saturating substrate.

Data set [1] has as its system human UGTs. The experiment in a line: Recombinant human UGT screen: glucuronidation rates across human UGTs. It is filed as biochemical. As to conditions: 10 μM aglycone, control substrates. The procedure:
(§1) Recombinant human UGTs 1A1, 1A3, 1A6, 1A7, 1A8, 1A9, 1A10, 2A1, 2A2, 2A3, 2B4, 2B10, 2B7, and 2B17 were produced, as His-tagged proteins, in baculovirus-infected insect cells as previously described.[37]−[39] The relative expression level of each of these recombinant UGTs was evaluated by immunodetection, using monoclonal antibody against the His-tag, as described elsewhere.[40] A numeric value of 1.0 was given to the expression level of UGT1A8 and the relative expression level of each of the other UGTs was related to this value. Normalized activities were obtained by dividing the glucuronidation rate values by the relative expression level of the tested UGT. In addition, UGTs 1A4, 2B10, and 2B15 were purchased from Corning Life Sciences (New York) and are marked, in Figure 5, with a “C” to indicate that they are commercial enzymes. The expression levels of the UGTs in the commercial samples could not be determined, so their protein concentration was used to calculate the reaction rate.
(§2) The incubation mixtures for glucuronidation assays contained 100 mM Tris-HCl buffer pH 7.4, 2.5 mM MgCl2, 0.5 mM UDPGA, recombinant UGT, or microsomes as the enzyme source and 0–15 μM of the test aglycone substrate. When the incubation mixtures contained microsomes, alamethicin was used at a final concentration of 12.5 μg/mL, but it was not included in the recombinant enzyme assays.[43] In the first experiments three negative control samples were tested, namely (i) without the substrate 7-hydroxycoumarin derivative, (ii) without the cofactor UDPGA, or (iii) without the enzyme source. In subsequent experiments, the control samples lacked the enzyme source since it gave the highest fluorescence background. Preliminary experiments were done under different conditions than most of the later assays, namely in 2.5 mL of 100 mM phosphate buffer pH 7.4, containing 500 μg pig liver microsomes, 1.0 μM compound 6 and 0.5 mM UDPGA, at room temperature. Fluorescence spectra (excitation 200–420 nm; emission 400–600 nm) or fluorescence decrease at 390 nm excitation and 460 nm emission, were measured in these preliminary experiments, using a Shimadzu RF-5000 spectrophotofluorometer.
(§3) Most of the glucuronidation assays were carried out in 96 multiwell plate format, and incubations were carried out in 100 μL and at 37 °C, in the presence of Tris–HCl buffer pH 7.4, UDPGA, and the tested 7-hydroxycoumarin derivative, at the indicated concentrations. Fluorescence decline in the multiwell plate experiments was monitored every other minute, for 40 min, using an excitation filter at 405 nm and detection at 460 nm, in a Victor2 1420 Multilabel counter (PerkinElmer, Life Sciences, Turku, Finland). The fluorescence values were transformed into molarity using the aglycone substrates for making the respective standard curves. Slopes of the substrate concentration decrease per minute were calculated using linear regression analysis, in which the linear part of the kinetic assay indicated the glucuronidation rate. Enzyme catalyzed glucuronidation rate was calculated by subtracting the blank value from the full reaction value. The intra-assay variability of the kinetic assays was 6% when compound 6 was used as the aglycone substrate. Kinetic analyses were also performed in the same 96 multiwell plates format, with excitation filter at 405 nm and detection at 460 nm, using 6–8 different substrate concentrations per substrate and two different protein concentrations for both the wild-type and mutant UGT1A10. The higher concentrations, 13.5 mg/L for UGT1A10 and 12.0 mg/L for the UGT1A10 mutant, were used when the substrates were HFC, compounds 4 and 6, whereas the lower protein concentrations, 6.75 and 6.0 mg/L for UGT1A10 and the mutant, respectively, were used when the substrates were compounds 1, 2, 3, and 5.

In data set [2] the test system is human intestinal microsomes (HIM). In words: Glucuronidation by human intestinal microsomes (HIM). As to conditions: 10 μM aglycone. The format is in vitro ADME. On the procedure:
A commercial HLM pool (cat no:452210, BD Gentest, Bedford, MA) and human intestine microsomes (HIM) pool (lot. no 1110189, XenoTech, Kansas City, KS) were purchased. Pig liver samples were prepared from untreated female pigs that were used for practicing surgical procedures at the University of Kuopio (currently: University of Eastern Finland, Kuopio campus). Other animal liver microsomes were prepared as described previously.[41] The Ethics Committee for Animal Experiments, University of Kuopio, approved these experiments.
as §2, §3

Substrate in data set [3]: CN(C)c1ccc(-c2cc3ccc(O)cc3oc2=O)cc1
The experiment in a line: Glucuronidation kinetics by recombinant wild-type UGT1A10 (fluorescence decrease, 96-well plate). The format is biochemical, human. As to conditions: other: UGT1A10 wild-type, 7-hydroxyl glucuronidation, Michaelis–Menten, one experiment; pH 7.4; 37.0 °C. The procedure:
as §1, §2, §3

Substrate in data set [4]: COc1ccc(-c2cc3ccc(O)cc3oc2=O)cc1
Described as above. It is filed as biochemical, human. As to conditions: other: UGT1A10 wild-type, 7-hydroxyl glucuronidation, Michaelis–Menten, one experiment; pH 7.4; 37.0 °C. The procedure: as §1, §2, §3

Substrate in data set [5]: Cc1ccc(-c2cc3ccc(O)cc3oc2=O)cc1
The data set is described as above. The format is biochemical, human. As to conditions: other: UGT1A10 wild-type, 7-hydroxyl glucuronidation, Michaelis–Menten, one experiment; pH 7.4; 37.0 °C. On the procedure: as §1, §2, §3

Substrate in data set [6]: O=c1cc(C(F)(F)F)c2ccc(O)cc2o1
The description is as above. It is filed as biochemical, human. As to conditions: other: UGT1A10 wild-type, 7-hydroxyl glucuronidation, Michaelis–Menten, one experiment; pH 7.4; 37.0 °C. On the procedure:
as §1, §2, §3

Substrate in data set [7]: O=c1oc2cc(O)ccc2cc1-c1ccc(F)cc1
The data set is described as above. It is filed as biochemical, human. As to conditions: other: UGT1A10 wild-type, 7-hydroxyl glucuronidation, Michaelis–Menten, one experiment; pH 7.4; 37.0 °C. On the procedure:
as §1, §2, §3

Substrate in data set [8]: O=c1oc2cc(O)ccc2cc1-c1ccc(O)cc1
The data set is described as above. As to conditions: other: UGT1A10 wild-type, 7-hydroxyl glucuronidation, Michaelis–Menten, one experiment; pH 7.4; 37.0 °C. It is filed as biochemical, human. On the procedure:
as §1, §2, §3

Substrate in data set [9]: O=c1oc2cc(O)ccc2cc1-n1cncn1
The description is as above. It is filed as biochemical, human. As to conditions: other: UGT1A10 wild-type, 7-hydroxyl glucuronidation, Michaelis–Menten, one experiment; pH 7.4; 37.0 °C. On the procedure:
as §1, §2, §3

Substrate in data set [10]: CN(C)c1ccc(-c2cc3ccc(O)cc3oc2=O)cc1
In words: Glucuronidation kinetics by UGT1A10 mutant 1A10-H210M (fluorescence decrease, 96-well plate). The format is biochemical, human. As to conditions: other: UGT1A10mutant (H210M), 7-hydroxyl glucuronidation, one experiment; pH 7.4; 37.0 °C. The procedure:
(§4) The UGT1A10 mutant 1A10-H210 M was prepared according to the QuikChange methodology, using the cloned UGT1A10 in pFastBac[42] as a template and the following two oligonucleotides:
(§5) The entire coding sequence of UGT1A10 in the mutant clone was sequenced, and subsequently, recombinant baculovirus was prepared and used to express the mutant enzyme in baculovirus-infected SF9 insect cells.
as §2, §3

Substrate in data set [11]: COc1ccc(-c2cc3ccc(O)cc3oc2=O)cc1
The data set is described as above. The format is biochemical, human. As to conditions: other: UGT1A10mutant (H210M), 7-hydroxyl glucuronidation, one experiment; pH 7.4; 37.0 °C. On the procedure: as §4, §5, §2, §3

Substrate in data set [12]: Cc1ccc(-c2cc3ccc(O)cc3oc2=O)cc1
The description is as above. The format is biochemical, human. As to conditions: other: UGT1A10mutant (H210M), 7-hydroxyl glucuronidation, one experiment; pH 7.4; 37.0 °C. On the procedure: as §4, §5, §2, §3

Substrate in data set [13]: O=c1cc(C(F)(F)F)c2ccc(O)cc2o1
The description is as above. The format is biochemical, human. As to conditions: other: UGT1A10mutant (H210M), 7-hydroxyl glucuronidation, one experiment; pH 7.4; 37.0 °C. On the procedure:
as §4, §5, §2, §3

Substrate in data set [14]: O=c1oc2cc(O)ccc2cc1-c1ccc(F)cc1
Described as above. It is filed as biochemical, human. As to conditions: other: UGT1A10mutant (H210M), 7-hydroxyl glucuronidation, one experiment; pH 7.4; 37.0 °C. The procedure: as §4, §5, §2, §3

Substrate in data set [15]: O=c1oc2cc(O)ccc2cc1-c1ccc(O)cc1
The data set is described as above. The format is biochemical, human. As to conditions: other: UGT1A10mutant (H210M), 7-hydroxyl glucuronidation, one experiment; pH 7.4; 37.0 °C. The procedure:
as §4, §5, §2, §3

Substrate in data set [16]: O=c1oc2cc(O)ccc2cc1-n1cncn1
The data set is described as above. As to conditions: other: UGT1A10mutant (H210M), 7-hydroxyl glucuronidation, one experiment; pH 7.4; 37.0 °C. The format is biochemical, human. On the procedure: as §4, §5, §2, §3

Numbering of substitutions follows the chain as printed. In names and notes the source's numbering stands.

On to `O=c1ccc2ccc(O)cc2o1` [7-hydroxycoumarin, reference compound], for which, in [1], the “UGT(s) that primarily glucuronidate the substrate” value is reported as “UGT1A6”. Moreover, the “Glucuronidation rate, HLM compared with HIM (in words)” value in data set [2] is “much higher rates by HLM than by HIM”.

B1: UGT1A10 (Homo sapiens) (protein)
chain: GKLLVVPMDGSHWFTMQSVVEKLILRGHEVVVVMPEVSWQLERSLNCTVKTYSTSYTLEDQNREFMVFAHAQWKAQAQSIFSLLMSSSSGFLDLFFSHCRSLFNDRKLVEYLKESSFDAVFLDPFDTCGLIVAKYFSLPSVVFTRGIFCHHLEEGAQCPAPLSYVPNDLLGFSDAMTFKERVWNHIVHLEDHLFCQYLFRNALEIASEILQTPVTAYDLYSHTSIWLLRTDFVLDYPKPVMPNMIFIGGINCHQGKPLPMEFEAYINASGEHGIVVFSLGSMVSEIPEKKAMAIADALGKIPQTVLWRYTGTRPSNLANNTILVKWLPQNDLLGHPMTRAFITHAGSHGVYESICNGVPMVMMPLFGDQMDNAKRMETKGAGVTLNVLEMTSEDLENALKAVINDKSYKENIMRLSSLHKDRPVEPLDLAVFWVEFVMRHKGAPHLRPAAHDLTWYQYHSLDVIGFLLAVVLTVAFITFKCCAYGYRKCLGKKGRVKKAHKSKTH
notes: His-tag; made in house; host or cells: baculovirus-infected insect cells
As to B1, the Km in data set [3] is on record as 2.8 (0–6.5) μM; in [4] it was 8.3 (0–31.4) μM; in data set [5], 2.8 (0.7–4.9) μM; in [6], 14 (10.7–17.3) μM; in data set [7], 10.7 (1.7–19.6) μM; in data set [8], 2.2 (1–3.4) μM. In addition, the Km in data set [9] was 7.0 (3.1–11) μM. Besides, the maximal velocity (Vmax) in [3] was 0.0153 µmol/min/mg; in data set [4], 0.0223 µmol/min/mg; in [5], 0.0162 µmol/min/mg; in data set [6], 0.0151 µmol/min/mg; in [7] it was 0.031 µmol/min/mg; in data set [8] it was 0.0059 µmol/min/mg. Besides, the Vmax in [9] was 0.0053 µmol/min/mg. For the same molecule, the Vmax/Km in data set [3] was found to be 5500 µL/min/mg; in data set [4] it was 2700 µL/min/mg; in [5], 5800 µL/min/mg; in data set [6], 1100 µL/min/mg; in data set [7], 2900 µL/min/mg; in data set [8] it was 2700 µL/min/mg. Also, in [9], the Vmax/Km came out at 760 µL/min/mg.

B2: UGT1A10 mutant 1A10-H210M (Homo sapiens; H210M) (protein)
chain: B1 chain with H185M
notes: His-tag; made in house; host or cells: baculovirus-infected SF9 insect cells
As for B2, the Km in [10] is 4.7 (1.5–7.9) μM; in data set [11], 3.8 (0.97–6.7) μM; in [12], 4.6 (1.5–7.8) μM; in data set [13] it was 32.9 (0–102) μM; in data set [14] it was 3.5 (0–9.3) μM; in data set [15], 7.8 (5.5–10.2) μM. Besides, the Km in [16] was 26.8 (0–80) μM. The Vmax in data set [10] came to 0.0065 µmol/min/mg; in data set [11] it was 0.0095 µmol/min/mg; in data set [12], 0.0059 µmol/min/mg; in data set [13] it was 0.0117 µmol/min/mg; in data set [14], 0.0087 µmol/min/mg; in data set [15] it was 0.0063 µmol/min/mg. Further, the maximum rate (Vmax) in [16] came out at 0.0063 µmol/min/mg. The Vmax/Km came out at 1400 µL/min/mg in [10]; 2500 µL/min/mg in [11]; 1300 µL/min/mg in [12]; 360 µL/min/mg in [13]; 2500 µL/min/mg in data set [14]; 810 µL/min/mg in data set [15]. For the same molecule, the Vmax/Km in data set [16] turned out to be 240 µL/min/mg.
